{
  "source": "patent US20070014736A1",
  "about": "“Methods of delivering corticotroph-derived glycoprotein hormone” (priority 2005, published 2007)",
  "key": {"[1]": {"system": "LPS-induced mild endotoxemia mouse model", "experiment": "LPS-induced mild endotoxemia mouse model, serum cytokines", "format": "in vivo, mice", "description": "An in vivo experiment was designed to examine the effect of CGH in a mouse model of LPS-induced mild endotoxemia. This model mimics acute endotoxemia/sepsis by challenging mice with a low, non-lethal dose of bacterial endotoxin (lipopolysaccharide, LPS). Serum is collected at various timepoints (1-8 hours) after intraperitoneal LPS injection and analyzed for altered expression of a wide variety of pro- and anti-inflammatory cytokines and acute phase proteins that mediate the inflammatory response. The model provides a means to assess the potential anti-inflammatory effects of therapeutic candidates during a robust inflammatory response. To initially assess the model, we measured proinflammatory cytokines in a pilot experiment to collect reference data for the model.\nC57B1/6 mice (Charles River Laboratories; 5 mice/group) were treated i.p. with PBS, 0.2 mg/kg CGH in PBS, or 2 mg/kg CGH in PBS 1 hour prior to LPS challenge. The mice were then challenged with 25 ug of LPS i.p. and bled at 1 hour and 4 hours after LPS injection. Serum was analyzed for TNF[…] (1 hour) and IL-6 (4 hours) levels by ELISA.\nTo determine if CGH would potentiate the effect of a sub-maximal dose of glucocorticoid, groups of 10 C57B1/6 mice each were treated i.p. with PBS, 0.15 or 1.5 mg/kg Dex, 2 mg/kg CGH, or a combination of CGH and low or high doses of Dex, 1 hour prior to injection of 25 ug LPS i.p. As shown in TABLE 3 (Expt #2), either 2 mg/kg CGH or 1.5 mg/kg Dex treatment alone (1 hour prior to LPS) caused a significant drop in serum TNFα levels at 1 hour, as observed in previous experiments. The effects of CGH administered in conjunction with Dex on inhibition of TNFα production were greater than either dose of Dex alone."}, "[2]": {"system": "undifferentiated 3T3 L1 fibroblasts", "experiment": "CRE-luciferase reporter assay in undifferentiated 3T3 L1 fibroblasts", "format": "cell-based, murine", "description": "Differentiated murine 3T3 L1 adipocytes and primary human adipocytes were used to study signal transduction of CGH. 3T3 L1 fibroblasts were differentiated into adipocytes and the cells were transduced with recombinant adenovirus containing a reporter construct, a firefly luciferase gene under the control of cAMP response element (CRE) enhancer sequences. This assay system detects cAMP-mediated gene induction downstream of activation of Gs-coupled G-protein coupled receptors (GPCR's). […] In a separate experiment, undifferentiated 3T3 L1 fibroblasts were transduced with the recombinant adenovirus. […] In another experiment, human primary adipocytes were also transduced with the recombinant adenovirus containing a reporter construct. Treatment of the human adipocytes with isoproterenol produced a 17-fold induction of luciferase expression.\nCells were cultured at 37° C. in an 8% CO2 humidified incubator. Cells were seeded to collagen-coated 96-well plates (Becton Dickinson, cat. #356407) at a density of 5,000 cells per well. […] Luciferase activity was measured on a microplate luminometer (PerkinElmer Life Sciences, Inc., model LB 96V2R) following automated injection of 40 μl of luciferase assay substrate into each well. […]"}, "[3]": {"conditions": "Expt 1, 0.2 mg/kg CGH i.p. 1 hr prior to LPS"}, "[4]": {"conditions": "Expt 1, 2 mg/kg CGH i.p. 1 hr prior to LPS"}},
  "data": [
    {"molecule": "CGH: heterodimeric protein hormone comprised of alpha subunit GPHA2 and beta subunit GPHB5, recombinantly produced in CHO cells (protein) chain 1: QEAVIPGCHLHPFNVTVRSDRQGTCQGSHVAQACVGHCESSAFPSRYSVLVASGYRHNITSVSQCCTISGLKKVKVQLQCVGSRREELEIFTARACQCDMCRLSRY chain 2: ASSGNLRTFVGCAVREFTFLAKKPGCRGLRITTDACWGRCETWEKPILEPPYIEAHHRVCTYNETKQVTVKLPNCAPGVDPFYTYPVAIRCDCGACSTATTECETI", "values": [
      {"measurement": "reduction of TNFα induction", "setting": "[1]; 2 mg/kg CGH, 1 hour time point, Expt 1", "result": "about 60%"},
      {"measurement": "increase of serum IL-6 levels", "setting": "[1]; 2 mg/kg CGH, 4 hour time point, Expt 1", "result": "about 70%"},
      {"measurement": "IL-6, 4 hours", "setting": "[1]; [3]", "result": "49.7 ± 3.1", "unit": "ng/mL"},
      {"measurement": "TNFα, 1 hour", "setting": "[1]; [3]", "result": "3916 ± 1057", "unit": "pg/mL"},
      {"measurement": "IL-6, 4 hours", "setting": "[1]; [4]", "result": "71.1 ± 12.9", "unit": "ng/mL"},
      {"measurement": "TNFα, 1 hour", "setting": "[1]; [4]", "result": "2290 ± 530", "unit": "pg/mL"},
      {"measurement": "IL-6, 4 hours", "setting": "[1]; Expt 2, 2 mg/kg CGH", "result": "57.1 ± 16.2", "unit": "ng/mL"},
      {"measurement": "TNFα, 1 hour", "setting": "[1]; Expt 2, 2 mg/kg CGH", "result": "2274 ± 524", "unit": "pg/mL"},
      {"measurement": "reporter gene induction", "setting": "[2]", "result": "did not result in an increase in reporter gene induction"}
    ]}
  ]
}
